Among the data in the NTF2 design screens of Basanta et al. (2020) are protease stability score values, retold here.

This data set is described as follows: protease stability score; higher = more stable; yeast display proteolysis, trypsin and chymotrypsin.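 Note: relative to predicted unfolded state with 0 unfolded-like and 1 meaning tenfold more protease.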
“TEEEKLARFAWHLRLHAEETGNEELIETLMDPNVKIDIDINGREIHMIGREEYIRWFNEYGFKHVEHVDEREMRVQGDYLDIRGRVIFHVNGQRIDTETQHHILVVDGRIKEIHDIYH”: the protease stability score stood at 1.69.
“TEEEKMAEKLWEILVKNAQTGDEDKVLKLIDPHTRFTFNGQTHHGRDTFHHLWKILGVDHVEPHSIEVQGDKAHIDSRLYFNGQVRTYTIIVEKINGRWIVTTIDLH” gave a protease stability score of 1.
The sequence “TEEEKSLKEVLERYIKAIRTGDWEILRHLADPRTRMDINGRDIHGMEEITNELVEQIRRFDHIDFKFHHIEVYGDKADVHGTLVIKINGVEIRHSTKEFWYKVNGRWILHHSEIH” showed a protease stability score of 1.21.
As for “TEEENMNEENLDLAVHLMHTGDEEHLFDRLDPHARLEYGDKKYHGREIVEEVLLTLIRELGVDHIRVRRVKFVGDKLHIDSEFTVGDKVFRLHLVARKINGRWWLHSMRVQ”, the figure is 1.34; as for “TEEEQLLKEFAELYLRNWWTGNEDKLLELADPHARSVVNGREIHGRENMYKLIRLWLERFKNIQIHYDDVKFQGNYVKLHGHMTVGDKTTHIIIHILVIDGVIKELSLEVN”, 1.56; as for “TEEERDMKHLAELALESFLTGDFEIIKKLADPNVRSVIDGRDYHGMEEVHRYLEELLRMLGVKVSRIEDERLRIINGRVTVETDIRLNVDGKIFRVTLHFFFHKFNGRWRIEEIRIHIE”, 0.537.
The sequence “TEEERDSKLAFQLLFKTLETGDEREHREFIDPNMRLHVGNYEFIGWERAVHIMRRIDHVQRIEIEDTYTIGNKVTIDGTDYIEVGDFTERIRSRWIILKVDGKWFIHHVELR” gave a protease stability score of 0.679.
The same measure for “TEEERDTKIAVDLFEEYSRTGNEDNMRELADPNVRLKINGVDYVGWKHMTKLLNHWRVKTVNIRHVEIQGDYARSDVEEEVLINGKEDRRTSRLILFKVNGRWIIKSLEFD”: 1.28; for “TEEERDVEKFIRDTLHYLHTGDEDAVAELMDPNVKFIIGDKHLHGMEALEYWSERFDHFHVRRLEIHHFEIINGRVHIELRIWVEVRYNGRIFELEFRSEYIMYKIDGKWVIKHVRHT”: 1.56.
The same measure for “TEEEREFKEFVEHWMRAIETGDEELLYKLLDPNTQLNYNGVNNHGWHVIKHLEELLGIKVREMRIRDFHHIGDKIVLDVEDIIRIDGRTIILRTEILIVKVDGRWHLKSERVK”: 0.965.
For the sequence “TEEERHIKEMLELFLEFFKTGNEDLFKELADPHVRLHLNINGKKERVHGMDHAVKWLSQLRVHSFHLKDERAVDGVNEVDQESDVEWNGQRFETTVRLHVYIVNGKLHHLSIEIK”, the protease stability score came out at 1.19.
As for “TEEERIDHEYEERLKHSFETGDEETIKKMIDPNARVEIDGKDHHGREVMAHLISRIDVLHTVDTTDVSIQGDKINLNLRVHGHVNGKHIDRTLHVRIRKINGKWHIEHFKII”, the figure is 1.04; as for “TEEERIMLEAIDLLIELWRTGDWKLLDEMVDPRVRIEIGEFTHHGREEYLRILLEEVRRADHRRYHIDHLEIINGRVILNGFIDLTFNGVHLRIREHLVAEKVNGRWLLREIRQR”, 1.72.
The same measure for “TEEERIRRHAVELWVRSMRTGDEETSVDLADPRTKADINGVEIHGMEIVSKFFREMLEQYDVREFHIHSIDVIGDKVVTDMELILRVGDFENRTHIEFIVHKFDGKWRIEEIRLH”: 0.934; for “TEEERLHHELAKLMIHLMHTGDFDKLIKLVDPHAKLDEDVDGREVHVHGMEKWFEYLKEKFERIKNITIHIRDWRVYNGRVEIHVEYDINGKHVDTTIRLDVVNGRVKRIQIEQK”: 2.16.
Turning to “TEEERSTRIAWEIWEMVHKTGDERLIRRFADPNVRIQIGEYNHHGREELENHTKRIDHLHVQDSDVKRVHHFDGQVHIDVHEIIHLEFDGVREDIKRRAHFVVVKYDGRWYLHHVKFH”, the protease stability score was found to be 0.937.
As for “TEEESQAREALLIVLELLRTGDWRSMEKYADPHTLQVFNGRHLHGRELFSDFLEEYERKLGVDRIRVHIHHLDVINGQLRVDTTIDYGDKHHRMIIIINKYDGRWELEQLRIT”, the figure is 0.341; as for “TEEETETRNLLELFIRSLHTGDEDLTKRLLDPNVRLELGEWEAHGRESVSEVLRLLWELLGVKHIEHHVHDMRVFNGRVHADTRVIMVFDGREHRIETELIVVKIDGRWFIKSIHIR”, 1.61; as for “TEEETRLREFMDRLLKIITTGDEKRFKDLADPHVRLFIDGVTIHGRDEAHEMWEIFGMKVKSTHVHEIHIQGDKVNIDTRLSGHFNGRDHIWEAHIYVVKIDGRWILEYIEIR”, 1.94.
The same measure for “TEEHDEAHEVLKIFLEIHETGDEDDMKRLADPHARLNIGDKEYHGWKHFIEWLHKIKNVTSEIHHVHVYNGKVKTEVDLHVNGQDVKIILIMEKINGRWILQSVEVR”: 1.29; for “TEEHEDIMHFILEWTNSLLTGDFKRVKEMADPHVRVLIVIGDKELHLHGREWILKRTHDIVREMRVEIILHHVDSQGNFAHVDSTLRIEVDGVRFERKTRIHMDIVNGKLKSHEHRIE”: 1.29.
As to “TEEHEEARRAMKIIVDLLDTGDWKTISRYFDPNVRFEVGDKTYHGREEVLNRFIELGHSNIDVKLHHMELYGDKVVIDSRMNVDGRTHEIEWHSRKYNGRWRLHELHVR”, the protease stability score amounted to 1.12.
The same measure for “TEEHEKSEIAVELIIRTLVTGDEELMNKLIDPHVRIEFENRELVGRETYTKIYSRELRELGWEFVTTELRHIETQGEKVELQGDLVINGKRIKVHLYFHKYNGVWFLKRVHYE”: 1.19.
Turning to “TEEHELFEKLARLIIKWLHTGDEERINEYADPNYRTHIGDKTVIGREEREKLIRWLLEHMRIDHIELKDIRVINGKVEIDGKIHGQINGQEVTRHSIIYLIFVDGVIKHISIEWR”, the protease stability score came to 1.35.
As for “TEEHEVALRFWRMFLEAITTGDEKRIKELLDPHVQIEINGKHLHGMETLIHRINEIRETWKHVEIKTVEFYNGQIHSHFRVHYVFHVNGKEIERDTDVLLILTKVDGRWHIKSIHIH”, the figure is 2.52.
The same measure for “TEEHHFAERVVREWLKLYYTGDEERNETLADPNVKLDVNGRHYHGRESVSEFLREVYEHWRIREFHIHEFDVFNGVSHVDGELILEINGQKHRYRVRIIIVVINGRLKHIELNQV”: 1.56.
The same measure for “TEEHKFVKDFFIHMIRAWITGDEKELHRLFDPHTKVRIGDYVSHGMERTLEIWHKLWKELGFKHLEVREVRAQGDKSHTDVVYHVDGREKKVHIELEVFNGKATHLELDEK”: 0.519; for “TEEHRATHDYVELLIRAARTGDEDIWKTMFDPDDKLVINGRTHHGREEAVRLLREIRIQIDHVDLREVRVYDGVVEIHTHTELRIIQGDKHLEIRTDQEVHILKIDGRWSNSIVIIH”: 1.06; for “TEEHREIKESVEQWHKDLHTGNEEMLVRLMDPRMRLQIGDKTLHGREEATRWAREFHKRYDHIHDFKIKDYDHYGNYIIIIGTLDGIVDGQRVRTDVRLIFVKVNGRWTIESEEHE”: 0.346.
For “TEEKEDKDRWYEEVLRAVLTGDFHFLSRLADPDVRVEYGDKEHVGREEVSRFWQEFFERIKNVTIELHDYKVQGDKIHWLINLRFNGREHIVHIELIIIDGRIHEIRVQIR”, the protease stability score was determined as 2.02.
“TEEKEEIDHAFELIWKAIDTGDEKFMTEQADPHTLTILVVDGQEIRLHGMEEFVRTFRELGIKHVRLEDIRIQGNKVEIHIRTNFNGRESEMRVHMEKVDGRWVLRSHRVIFK” gave a protease stability score of 1.36.
For “TEEKHELEKLAKIMFEIIETGDEKTWDELLDPNMRSDVNGVENIGREKVDKAILHYIKRIPNVRIQFTDMHIQGDKVIIRTEVHIGDYREELIIEVVVVNGRFKSFRLTLRRE”, the protease stability score came to 1.22.
As for “TEEKHMVLKIMEQVLQKWVTGDEDVLDHLLDPDDRLHLLQGDKFVEYHGWEEANKAWNEMRITHIELHDIRAQGDKVTSDGTLDGHFNGRRTRVRVRVHLIIVNGRLKEVELQLH”, the figure is 0.924; as for “TEELEELEKMLELVLRSFHTGDEHLLERLADPHAKYHFNGKNLHGWDKLSHLWRKAGVEKVESRIRDLELQGDYVNTDVEMRYNGRTEEVEFRVKKIDGRWIIKEIIIR”, 0.809; as for “TEEQEESTRAYEEILQYIRTGDERQMTKYADPHVKLIFNGKEIHGREMFVELVKQYGIDHHHIHNWDFINGRVRMETHVRQGDKHDNAHIDMTKFDGKWIVRLFVFV”, 0.856.
As for “TEEQEIIQKFLDEMMEYLETGDEHSLRRLADPHARWDVNGREYHGRELFITFFSELTHKLGWTIQKIEIESKRRVGEYVSFRMTIHSEVDGRHKVIIYNFFVFKVNGKWFLKSFKEE”, the figure is 1.47; as for “TEEQHEARHLFQLWVYSVITGNEHILHNLVDPHYLLDVGDYHVHGREDTLKVLLEARVEDFRVRDVRVYDGRLESDIEFTGHFNGRKINNKVEMTQEKIDGRWYLKRTKVT”, 1.77.
As for “TEEQTHLIRLIEQFVRDEITGNWKSVLKLLDPEVKVILKINGREIHLHGREEITRWVHEWVRHIRVFIEIHHSRAFDGVVEMDTRIIIDIDGVHLSQETRINIYVVDGVLKSMEIHVK”, the figure is 1.65; as for “TEEREHDHRIFNLFLHWWMTGNEEEIHKYIDPNVRMRLDVNGVEIRDVGREMVMEMLRILYEFLGIDVSRIHSHDTQGDKVVLHGRNHVNGRDIEVHIEWKVINGKLKEVRIEIRER”, 1.57; as for “TEERKEMEEAWDRFVHNIHTGDEHSLLKLVDPHVRVQIGDKEVHGWRYLLQLLRDIITKVKNLTVDLRIEDERMIGNYIELEVILVINFENRYHFIRYHVRHEKVDGKWHLKEISRD”, 1.08.
Consider “TEESQIALEVLIKTARNKYTGDEDSVRHMADPNVQLHFDGQEIHGMDIIRKMIKHIRIDIEDSRSRDHHVQGDKIHDQTEVVLLIEYNGVHIRRQVRVHIHIWKINGRWILHSEIFE”, for which the protease stability score amounted to 1.41.
As for “TEEVHRYKNMLELFDHAVRTGNEDLLKILFDPNTRIEVGEYHNHGWEAIEFFLKRVDHEHIEDSKLTSHHVQGNYLESHGHMHATLHFNGKELRIHTHVRWHLDKFNGRWVIHSIIIN”, the protease stability score stood at 1.33.
The same measure for “TEEYRHVEEVIRMTFELLRTGNEQELEDRADPHAKSNVNGQEIHGRERFTRWFLEMITHLGVKHVRVRHYTVVNGRVIVHLEFDFDGVKIDYTVVIWKINGKWFIKISHEEHH”: 2.09; for “TEFEQEVERMIRMWRHLYETGDEKTLSHLVDPNVRVIVDGKHIHGREQVVNEIRRAHIVDDFEIRLEDTKYFEGRAVFTGIIREHGHVDGRTVHKSTKVEIDVVKVDGQWLIHRINFH”: 1.54; for “TEHDEDLDRWYDVLKHVLHTGDEEAKAKMVDPHVREDVNGQELHGRDDVRRLDRELGVNHFVLRVERLNIQGNKITMRGTLELTVGDKTERRHVIIHMIKIDGKWFTHHEQIR”: 1.04.
The same measure for “TEHDHDTERAFKEWFDVVRTGDFHRLERMLDPNVLSRIDGKLIHGRERLLKFWQEYLEHLGANHHEIHHVDIQGDKINIDIRVEYGDKRFTVHVHASKINGQWRVHENEKQ”: 1.02; for “TEHDQVLLQLSQELFHSVLTGDFDLWTKLMDPNVRVHIISEDEELHRVGWETMIRWLRRFLEELRIHSMRIRRVHHVDGVAHEDGELDGIVDGQRVITRVTLHVITINGRWHSVHLERL”: 0.801.
